Assay results: US7566453B2, “Methods for treating melanomas” (Chugai Seiyaku Kabushiki Kaisha, priority 1998, dated 2009)

Experiments:
[1] = target: T1, human IL-6 receptor (Homo sapiens, UniProt P08887); experiment: Inhibition of binding of human IL-6 to human IL-6 receptor; conditions: compared with mouse antibody and chimeric antibody
T1 sequence (P08887 20-468): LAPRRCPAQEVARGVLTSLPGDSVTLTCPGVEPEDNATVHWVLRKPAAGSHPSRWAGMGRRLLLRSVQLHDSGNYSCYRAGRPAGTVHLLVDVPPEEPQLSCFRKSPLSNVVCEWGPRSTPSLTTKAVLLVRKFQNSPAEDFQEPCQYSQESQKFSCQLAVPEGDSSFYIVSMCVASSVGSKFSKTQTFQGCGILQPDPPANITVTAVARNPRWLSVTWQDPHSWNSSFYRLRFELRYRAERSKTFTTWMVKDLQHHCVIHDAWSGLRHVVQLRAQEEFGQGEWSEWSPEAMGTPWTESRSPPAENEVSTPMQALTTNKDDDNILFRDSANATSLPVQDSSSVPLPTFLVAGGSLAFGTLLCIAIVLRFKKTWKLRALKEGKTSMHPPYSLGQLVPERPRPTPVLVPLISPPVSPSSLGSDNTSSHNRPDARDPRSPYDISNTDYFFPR
Excerpt: In order to express genes of L chain and H chain of the reshaped human PM-1 antibody thus constructed, DNA encoding the L chain or the H chain was separately inserted into a vector containing the human elongation factor 1α (HEF-1α) promoter, and a vector expressing the L chain or the H chain of the reshaped human PM-1 (hPM-1) antibody was constructed. By simultaneously inserting these two expression vectors into CHO cells, a cell line that produces reshaped human PM-1 antibody (hPM-1) was established.

[2] = Body weight change (toxicity) of myeloma-implanted mice, Example 3; format: in vivo, SCID mouse; conditions: melphalan administration (FIG. 16)
Method: For evaluation of antitumor effects, a xenograft model animal that was produced by implanting KPMM2 cells via the tail vein was used as in Working example 2. Thus, single-cell suspensions which were prepared by passing through a mesh KPMM2 cells that were minced after having been maintained in vivo were implanted at 0.2 ml per mouse via the tail vein (6×10^6 cells per mouse). The day when the cells were implanted was set at day 0.
With regard to anti-human IL-6 receptor antibody hPM-1, a stock solution that had been preserved at 6.57 mg/ml was diluted in sodium phosphate buffer to make each solution of 5, 1, 0.2, and 0.04 mg/ml. They were given to mice at 0.1 ml per 10 g body weight of mouse via the tail vein on day 14 to create the 50, 10, 2, and 0.4 mg/kg administration groups. The control group received the same buffer without antibody in a similar manner. […]
The experiment was carried out on the following 10 groups: (A) the melphalan and the antibody non-administration group; (B) the melphalan single-drug administration group; (C) the each dose of antibody single-drug administration group , 4 groups (50, 10, 2, 0.4 mg/kg weight); and, (D) the melphalan and the each dose of antibody combined administration group, 4 groups (50, 10, 2, 0.4 mg/kg weight). […] The amount of M protein was calculated as described in Example 2.

## hPM-1: reshaped human PM-1 antibody: CDRs of mouse anti-IL-6 receptor antibody PM-1 grafted to human antibody, produced in CHO cells
[1]
  inhibition of the binding of human IL-6 to human IL-6 receptor: inhibited the binding of human IL-6 to human IL-6 receptor in a similar manner to that of mouse antibody and chimeric antibody

## NC(Cc1ccc(N(CCCl)CCCl)cc1)C(=O)O (centres unmarked) [melphalan]
[2]
  toxicity (inhibition of body weight gain): caused toxicity to mice and inhibited body weight gain
